From patent US20120251554A1 (TECHNISCHE UNIVERSIT T DRESDEN, published 2012)

Key:
human CD33 [1] = molecular target: T1, human CD33 (human, UniProt P20138 18-364); experiment: method not stated (sentence refers to FIG. 3, flow cytometry)
T1 construct: whole, on cells; also called CD33+-Hek293T cells; Hek293T-CD33

human CD33 [2] = molecular target: T1, human CD33; experiment: cell-based or functional assay

T1 sequence (P20138 18-364): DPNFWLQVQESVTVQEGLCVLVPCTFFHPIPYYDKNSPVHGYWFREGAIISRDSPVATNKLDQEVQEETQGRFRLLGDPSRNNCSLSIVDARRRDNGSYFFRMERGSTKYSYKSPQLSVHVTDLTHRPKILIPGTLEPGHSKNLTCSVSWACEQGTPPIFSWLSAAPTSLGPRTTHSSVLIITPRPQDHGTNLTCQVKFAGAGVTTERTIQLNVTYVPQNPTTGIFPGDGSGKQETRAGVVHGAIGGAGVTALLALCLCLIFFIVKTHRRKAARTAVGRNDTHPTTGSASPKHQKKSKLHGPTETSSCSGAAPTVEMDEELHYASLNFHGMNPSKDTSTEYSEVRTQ

Row | Kd (human CD33 [1]) [nM] | specific lysis of the CD33+-Hek293T cells (51Cr release assay, 20-hour in vitro culture) (human CD33 [2]) [%] | Binder
1 | ~0.1 | – | anti-CD33DRB2 (antibody, V domains shown, Murine monoclonal antibody from a hybridoma; also called monoclonal anti-CD33DRB2; anti-CD33DRB antibody) VH: EVKLQESGPELVKPGASVKMSCKASGYKFTDYVVHWLKQKPGQGLEWIGYINPYNDGTKYNEKFKGKATLTSDKSSSTAYMEVSSLTSEDSAVYYCARDYRYEVYGMDYWGQGTSVTVSS VL: DIVLTQSPTIMSASPGERVTMTCTASSSVNYIHWYQQKSGDSPKRWIFDTSKVASGVPARFSGSGSGTSYSLTISTMEAEDAATYYCQQWRSYPLTFGDGTRLELKR
2 | ~0.1 | – | anti-CD33DRB1 (antibody, V domains shown, Murine monoclonal antibody from a hybridoma (tested as hybridoma supernatant); also called monoclonal anti-CD33DRB1; anti-CD33DRB antibody) VH: EVKLQESGAELVRPGVSVKISCKGSGYTFTDYVLHWVKQSHAKSLEWIGLINTYNGDVRYNQKFMGKATMTIEKSSSTAYMELVRLTSEDSAIYYCARDYRYEYYAMDYWGQGTSVTVSS VL: DIVLTQSPAIMSASPGEKVTMTCSANSSVSYIHWYQQKSGTSPKRWIFDTSKLASGVPARFSGSGSGTSYSLTISTMEAEDAATYYCQQWTSHPLTFGTGTKLQLKR
3 | – | < 86 | CD33-L18-GFP-L18-CD3 (bispecific antibody, part only; not given: anti-CD3 scFv, GFP, linkers, not shown: small tags and cut ends; large carriers) chain, part: EVKLQESGPELVKPGASVKMSCKASGYKFTDYVVHWLKQKPGQGLEWIGYINPYNDGTKYNEKFKGKATLTSDKSSSTAYMEVSSLTSEDSAVYYCARDYRYEVYGMDYWGQGTSVTVSSDIVLTQSPTIMSASPGERVTMTCTASSSVNYIHWYQQKSGDSPKRWIFDTSKVASGVPARFSGSGSGTSYSLTISTMEAEDAATYYCQQWRSYPLTFGDGTRLELKRADAAPTVS
